Columns and labels:
Nucleocapsid protein N [1] = target: T1, Nucleocapsid protein N (SARS-CoV-2, UniProt P0DTC9 1-419); assay: EMSA; settings: protein: recombinant; tags: N-terminal His6-TEV, tag removed; chain copies: 2; single strand
Nsp3 Ubl1 [2] = target: T2, Nsp3 Ubl1 (SARS-CoV-2, UniProt P0DTD1 819-929); assay: EMSA; 3.8 uM Ubl1; settings: protein: recombinant; tags: His tag removed by thrombin; single strand
Nsp3 Ubl1 [3] = target: T2, Nsp3 Ubl1; assay: MST; Ubl1 1, 5, 10 uM; settings: protein: recombinant; tags: His tag removed by thrombin; label: 5'-Cy5; single strand
Nucleocapsid protein N [4] = target: T1, Nucleocapsid protein N; assay: MST; no Ubl1; 40 nM RNA; settings: protein: recombinant; tags: N-terminal His6-TEV, tag removed; chain copies: 2; label: 5'-Cy5; single strand
Nucleocapsid protein N [5] = target: T1, Nucleocapsid protein N; assay: EMSA; 3.8 uM N, 2.5 uM DNA; displaced by Ubl1; settings: protein: recombinant; tags: N-terminal His6-TEV, tag removed; chain copies: 2; single strand

| Binder | binding result (Nucleocapsid protein N [1]) | binding result (Nsp3 Ubl1 [2]) | binding result (Nsp3 Ubl1 [3]) | Kd (Nucleocapsid protein N [4]) [µM] | binding result (Nucleocapsid protein N [5]) |
| --- | --- | --- | --- | --- | --- |
| UGUUCUCUAAACGAACU (ssRNA) [17-mer TRS ssRNA] | binds | no binding | – | – | – |
| UCUAAACGAAC (ssRNA) [11-mer TRS ssRNA] | – | – | no binding | 5.1 ± 0.6 | – |
| TGTTCTCTAAACGAACT (ssDNA) [17-mer TRS ssDNA] | – | no binding | – | – | binds |

Reference: article PMC9938351, “Structural insights into ribonucleoprotein dissociation by nucleocapsid protein interacting with non-structural protein 3 in SARS-CoV-2”
